Source: publication PMC4013091, “Stabilization and Augmentation of Circulating AIM in Mice by Synthesized IgM-Fc” (PLoS ONE, 2014)
Values joined by “and” are separate entries in the source; they are usually repeats but may differ in a detail not shown here. Equal entries are not always repeated.

Experiments:
[1] = target: FL-hFc, human IgM-Fc with a FLAG tag on the N-terminus of the CH2 domain (human); assay: non-reducing SDS-PAGE and western blot; culture supernatant of HEK293T cells transfected with pCAGGS-FL-hFc only, without IgJ
[2] = target: FL-hFc, human IgM-Fc with a FLAG tag on the N-terminus of the CH2 domain (human); assay: non-reducing SDS-PAGE and western blot; culture supernatant of HEK293T cells co-transfected with FL-hFc and IgJ-Myc; blotted with anti-FLAG and anti-Myc antibodies
[3] = target: human IgM-Fc pentamer (FL-hFc) combined with IgJ-Myc (human) (UniProt P01591)
[4] = target: T1, human recombinant AIM (apoptosis inhibitor of macrophage) (human, UniProt O43866 20-347); assay: SPR; Biacore 3000, 25°C; human rAIM covalently immobilised (2800 RU) on a CM5 chip; IgM-Fc monomer injected in 10 mM HEPES pH 7.4, 150 mM NaCl, 3 mM EDTA, 0.05% Tween-20 at 20 µL/min; 1:1 Langmuir model; apparent affinity; conditions: both partners purified
T1 construct: also called human rAIM; rAIM; source: purified recombinant
T1 sequence (looked up): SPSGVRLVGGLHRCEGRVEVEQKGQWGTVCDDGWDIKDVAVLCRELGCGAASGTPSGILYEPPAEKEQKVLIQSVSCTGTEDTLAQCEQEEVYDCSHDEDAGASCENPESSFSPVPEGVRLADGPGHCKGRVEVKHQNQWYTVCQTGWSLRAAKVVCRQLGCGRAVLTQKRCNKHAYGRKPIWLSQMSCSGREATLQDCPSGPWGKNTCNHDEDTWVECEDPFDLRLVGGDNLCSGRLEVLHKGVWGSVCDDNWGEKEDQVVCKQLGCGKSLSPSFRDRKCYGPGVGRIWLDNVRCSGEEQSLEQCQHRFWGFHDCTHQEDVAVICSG

[5] = target: human IgM-Fc pentamer (FL-hFc) combined with IgJ-Myc (human) (UniProt P01591); remark: listed apart in the source
[6] = target: human IgM-Fc pentamer (FL-hFc) combined with IgJ-Myc (human) (UniProt P01591); assay: sequential immunoaffinity co-purification; supernatant of co-cultured HEK 293T cells (hAIM-HA cells with FL-hFc and IgJ-Myc cells); anti-hAIM monoclonal antibody column, then anti-FLAG column; fractions blotted with anti-HA and anti-FLAG

Chain of human IgM-Fc pentamer (FL-hFc) combined with IgJ-Myc (human) (P01591 whole entry): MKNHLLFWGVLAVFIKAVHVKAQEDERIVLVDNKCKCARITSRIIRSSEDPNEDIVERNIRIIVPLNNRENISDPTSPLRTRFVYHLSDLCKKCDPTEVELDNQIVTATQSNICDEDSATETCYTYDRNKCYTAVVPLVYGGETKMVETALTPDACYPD

Molecule: FL-hFc, human IgM-Fc with a FLAG tag on the N-terminus of the CH2 domain (domain or fragment)
- stoichiometry N [1]: 5 and 6
- stoichiometry N [2]: 5

B1: endogenous mouse AIM in serum (natural protein)
chain: ESPTKVQLVGGAHRCEGRVEVEHNGQWGTVCDDGWDRRDVAVVCRELNCGAVIQTPRGASYQPPASEQRVLIQGVDCNGTEDTLAQCELNYDVFDCSHEEDAGAQCENPDSDLLFIPEDVRLVDGPGHCQGRVEVLHQSQWSTVCKAGWNLQVSKVVCRQLGCGRALLTYGSCNKNTQGKGPIWMGKMSCSGQEANLRSCLLSRLENNCTHGEDTWMECEDPFELKLVGGDTPCSGRLEVLHKGSWGSVCDDNWGEKEDQVVCKQLGCGKSLHPSPKTRKIYGPGAGRIWLDDVNCSGKEQSLEFCRHRLWGYHDCTHKEDVEVICTDFDV
- circulating mouse AIM level in Δsμ mice 24 h after i.v. injection of 1 mg FL-hFc, as percent of that in the wild-type mouse (immunoblot of serum) [3]: 35%

B2: monomeric human IgM-Fc (CH2-CH3-CH4) with a C-terminal Myc tag (domain or fragment)
chain: IAELPPKVSVFVPPRDGFFGNPRKSKLICQATGFSPRQIQVSWLREGKQVGSGVTTDQVQAEAKESGPTTYKVTSTLTIKESDWLGQSMFTCRVDHRGLTFQQNASSMCVPDQDTAIRVFAIPPSFASIFLTKSTKLTCLVTDLTTYDSVTISWTRQNGEAVKTHTNISESHPNATFSAVGEASICEDDWNSGERFTCTVTHTDLPSPLKQTISRPKGVALHRPDVYLLPPAREQLNLRESATITCLVTGFSPADVFVQWMQRGQPLSPEKYVTSAPMPEPQAPGRYFAHSILTVSEEEWNTGETYTCVVAHEALPNRVTERTVDKSTGKPTLYNVSLVMSDTAGTCY
modifications: Disulfide-linked dimer of the mu Fc chain (~100-110 kDa), N-glycosylated (HEK293T). C-terminal Myc tag, which blocks pentamer formation, omitted. Limits not printed: CH2 start by domain convention. …
- Kd [4]: 153 nM
- koff [4]: 0.00315 s⁻¹
- kon [4]: 20500 M⁻¹ s⁻¹

B3: HA-tagged human AIM (natural protein)
chain: T1 sequence (looked up)
- half-life of hAIM in the blood of wild-type mice after i.v. injection of 100 µg hFc-AIM complex (less than 2 h for hAIM alone) [5]: 12 h
- mass of hAIM in 100 µg of the purified hFc-AIM complex [6]: 20 µg
